Data from PMC6346213.
Values joined by “and” are separate entries in the source; they are usually repeats but may differ in a detail not shown here. Identical values can stand only once.

Molecular target: COP9 signalosome (CSN) holo-complex (human (endogenous in HEK293)) (UniProt Q13098)
Experiment: SEC; co-fractionation of native HEK293 lysate (freeze-thaw, 0.5% NP-40); Yarra-SEC-4000, 50 mM HEPES pH 7.5, 150 mM NaCl, 4°C; 81 fractions quantified by SWATH-MS; co-elution of protein profiles scored with CCprofiler (5% FDR) and by manual inspection

Sequence of UniProt Q13098 (Q13098 whole entry, looked up, one chain of several): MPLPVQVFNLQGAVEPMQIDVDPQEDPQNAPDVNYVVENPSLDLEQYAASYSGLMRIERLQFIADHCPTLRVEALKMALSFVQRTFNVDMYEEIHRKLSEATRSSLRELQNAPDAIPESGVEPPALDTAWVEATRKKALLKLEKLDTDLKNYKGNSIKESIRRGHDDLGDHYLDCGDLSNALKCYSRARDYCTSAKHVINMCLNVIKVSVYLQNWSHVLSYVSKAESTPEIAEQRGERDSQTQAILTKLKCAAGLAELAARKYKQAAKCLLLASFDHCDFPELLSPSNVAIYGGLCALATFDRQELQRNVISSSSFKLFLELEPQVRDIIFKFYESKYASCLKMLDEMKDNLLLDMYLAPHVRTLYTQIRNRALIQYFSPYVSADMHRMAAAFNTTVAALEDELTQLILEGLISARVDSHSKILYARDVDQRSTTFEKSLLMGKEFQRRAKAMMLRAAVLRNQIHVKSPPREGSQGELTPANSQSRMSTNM

substrate-bound fraction of CSN holo-complex: 25% and 22%
Substance: E3-CRL substrate of the COP9 signalosome (components CUL4A and DDB2) (from UniProt Q13619 1-759; Q92466 1-427) (complex)
